For assay [1], the target named is T1, Recombinant human IL27Rα-Fc chimera (human, UniProt Q6UWB1 33-516).
T1 construct: IL-27 receptor subunit alpha (IL-27Rα, WSX-1, TCCR), human; Captured on the chip by anti-human IgG-Fc antibodies; also called IL-27Rα-Fc fusion protein; IL-27R-Fc fusion protein; source: bought: R & D Systems
T1 sequence (looked up): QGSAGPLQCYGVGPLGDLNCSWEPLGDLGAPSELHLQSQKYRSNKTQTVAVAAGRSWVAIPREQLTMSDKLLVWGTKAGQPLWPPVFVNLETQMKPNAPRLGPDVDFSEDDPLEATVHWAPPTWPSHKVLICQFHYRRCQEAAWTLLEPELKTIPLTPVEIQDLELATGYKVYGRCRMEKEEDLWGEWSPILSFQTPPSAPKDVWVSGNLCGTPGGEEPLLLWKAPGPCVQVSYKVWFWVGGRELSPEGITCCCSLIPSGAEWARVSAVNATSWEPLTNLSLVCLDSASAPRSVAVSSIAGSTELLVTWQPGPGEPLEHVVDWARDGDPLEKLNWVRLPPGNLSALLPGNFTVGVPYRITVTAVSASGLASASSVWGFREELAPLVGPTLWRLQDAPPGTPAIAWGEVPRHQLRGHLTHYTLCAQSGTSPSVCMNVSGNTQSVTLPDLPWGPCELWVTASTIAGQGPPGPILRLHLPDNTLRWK
The experiment in a line: SPR; IL-27Rα-Fc or gp130-Fc captured on mouse anti-human IgG-Fc antibodies amine-coupled to a CM5 chip; IL-27 injected at increasing concentrations (multicycle), 30 μL/min; BIAcore T100, 25°C, HBS-EP+; double referenced; global fit, 1:1 Langmuir model; KD = kd/ka. To be noted: both partners purified. (SPR reads the build-up and loss of mass on a sensor chip optically.)

Assay [2] concerns the target T2, Recombinant human gp130-Fc chimera (human, UniProt P40189-1 23-619).
T2 construct: gp130 (interleukin-6 receptor subunit beta), human; Captured on the chip by anti-human IgG-Fc antibodies; also called gp130-Fc fusion protein; source: bought: R & D Systems
T2 sequence (looked up): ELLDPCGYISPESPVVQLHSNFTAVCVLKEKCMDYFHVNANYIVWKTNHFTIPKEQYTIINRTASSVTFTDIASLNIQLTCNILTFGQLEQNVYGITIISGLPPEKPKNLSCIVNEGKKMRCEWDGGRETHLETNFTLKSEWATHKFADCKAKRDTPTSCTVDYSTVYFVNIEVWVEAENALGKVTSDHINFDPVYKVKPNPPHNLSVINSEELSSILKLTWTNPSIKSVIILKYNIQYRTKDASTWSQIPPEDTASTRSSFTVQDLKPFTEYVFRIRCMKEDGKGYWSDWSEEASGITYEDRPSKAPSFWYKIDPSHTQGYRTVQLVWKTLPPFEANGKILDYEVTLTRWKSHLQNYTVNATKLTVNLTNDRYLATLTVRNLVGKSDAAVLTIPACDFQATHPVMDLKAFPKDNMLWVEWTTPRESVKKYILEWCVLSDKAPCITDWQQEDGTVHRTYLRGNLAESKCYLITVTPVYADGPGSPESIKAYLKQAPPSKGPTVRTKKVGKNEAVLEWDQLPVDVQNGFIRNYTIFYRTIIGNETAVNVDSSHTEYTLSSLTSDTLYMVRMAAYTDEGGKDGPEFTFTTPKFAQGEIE
The description is as above. The conditions noted are these: both partners purified.

B1: Recombinant human IL-27 (ligand)
chain 1: FPRPPGRPQLSLQELRREFTVSLHLARKLLSEVRGQAHRFAESHLPGVNLYLLPLGEQLPDVSLTFQAWRRLSDPERLCFISTTLQPFHALLGGLGTQGRWTNMERMQLWAMRLDLRDLQRHLRFQVLAAGFNLPEEEEEEEEEEEEERKGLLPGALGSALQGPAQVSWPQLLSTYRLLHSLELVLSRAVRELLLLSKAGHSVWPLGFPTLSPQP
chain 2: RKGPPAALTLPRVQCRASRYPIAVDCSWTLPPAPNSTSPVSFIATYRLGMAARGHSWPCLQQTPTSTSCTITDVQLFSMAPYVLNVTAVHPWGSSSSFVPFITEHIIKPDPPEGVRLSPLAERQLQVQWEPPGSWPFPEIFSLKYWIRYKRQGAARFHRVGPIEATSFILRAVRPRARYYVQVAAQDLTDYGELSDWSLPATATMSLGK
notes: IL-27 subunit p28 (cytokine subunit of the heterodimeric IL-27), human; Epstein-Barr virus-induced gene 3 (EBI3), the soluble cytokine receptor subunit of IL-27, human; also called interleukin-27; source: bought: R & D Systems
As to B1, in assay [1], the Kd – broadly, a measure of binding affinity in units of concentration – is 0.0457 nM; the koff – broadly, the first-order rate constant of dissociation – worked out at 0.00414 s⁻¹; the kon (as a rule, the rate constant with which the complex forms) is 9.08e+07 M⁻¹ s⁻¹. In assay [2], the Kd was 2.74 nM and the koff came out at 456 s⁻¹.

For the origin of these results see PMC4854210, “IL-27 Promotes Proliferation of Human Leukemic Cell Lines Through the MAPK/ERK Signaling Pathway and Suppresses Sensitivity to Chemotherapeutic Drugs” (Journal of Interferon & Cytokine Research, 2016).
